This note sets out measurements from patent US10351623B2, “Antagonists of IL-17 isoforms and their uses” (Orega Biotech, priority 2012, dated 2019).

Series [1] has as its system MDA-MB231 breast cancer cells. The experiment in a line: Matrigel invasion assay. The series is classed as cell-based, human. The conditions noted are these: cultured 2 days with 100 ng/ml, Matrigel Invasion Chambers, 22 hours. The method, then:
FIGS. 11A-11B: IL-17C and IL-17D increase invasion of MDA-MB231 breast cancer cells. MDA-MB231 were cultured for 2 days in complete adequate medium alone (medium) or supplemented with 100 ng/ml of recombinant human IL-17B, IL-17C or IL-17D as indicated. Cell invasiveness was then evaluated in Matrigel Invasion Chambers (A, representative photomicrographs, B, quantification).
(§1) Cells were cultured in adequate complete medium supplemented with 100 ng/ml of recombinant cytokines for 2 days (MDA-MB231) or 14 days (OAW42). Matrigel Invasion Chambers (BD BioCoat™ BD Matrigel™ Invasion Chamber, 24-well Cell culture inserts) were then used to study the invasiveness of cancer cells. 2.10^4 cells are then added to the upper compartment of the chambers in 1% FCS adequate medium alone or supplemented with 100 ng/ml of recombinant cytokines as indicated. Medium supplemented with 10% FCS is added to the lower wells of the chambers. Plates are incubated for 22 hours at 37° C. Transwell filters are then fixed and stained in Giemsa solution following which non-invading cells are removed from the upper surface of the transwell membrane using a cotton swab. Images of cells from three representative fields are captured digitally and the number of cells present on the transwell is counted.

The subject of another series is MDA-MB231 cells. Briefly: Cell proliferation assay ([3H]-TdR). The class given is cell-based, human. The following applies: MDA-MB231 cells that do not express IL-17RB; data not shown. The method, then:
(§2) HCT116, HT29, and SKOV3 cell lines were cultured in McCoy5a medium (Life technologies) supplemented with 10% FCS, 2% glutamine and 1% antibiotics (Life technologies). MCF7, T47D, MDA-MB231 and BT20 cell lines were cultured in RPMI 1640 medium supplemented as described above. SKMEL5, LOVO, OAW42, MDA-MB435S, MDA-MB436, MDA-MB468 cell lines and normal human dermal fibroblasts (NHDF) were grown in DMEM/F12 medium (Life Technologies) supplemented as described above. MCF10A cell line was maintained in DMEM/F12 medium (Life Technologies) supplemented as described above and with 10 μg/ml insulin, 0.5 μg/ml hydrocortisone, 20 ng/ml EGF and 100 ng/ml cholera toxin. MDA-MB157 cell line was cultured in DMEM medium (Life technologies) supplemented with 10% FCS, 2% glutamine and 1% antibiotics. All cells were kept at 37° C. in 5% CO2 atmosphere incubator.
(§3) 400 cells are seeded per well in 96 well plate (Corning) and kept overnight in adequate complete medium. Medium is then removed and replaced with adequate complete medium supplemented with 0 to 100 ng/ml of cytokines as indicated. Each condition is performed in triplicate. After 72 h of culture, cells were pulsed for 16 h with tritiated thymidine ([3H]-TdR) (0.5 μCi) and harvested. [3H]-TdR uptake was measured using PerkinElmer microβ2 2450 microplate counter.

The subject of series [2] is MCF7 breast cancer cells. Briefly: Cell proliferation assay ([3H]-TdR). The class given is cell-based, human. The following applies: [3H]-TdR incorporation at 72 h, increasing doses of recombinant cytokine (0 to 100 ng/ml). As to the method: (§4) FIGS. 7A-7D: IL-17B increases the proliferation of breast cancer cells. T47D (A), MCF7 (B), MDA-MB436 (C) and MDA-MB468 (D) cells were cultured in adequate complete medium supplemented with increasing doses of recombinant human IL-17B as indicated. Cell proliferation was assessed at 72 h using tritiated thymidine ([3H]-TdR) incorporation protocol.
(§5) FIGS. 10A-10F: IL-17C and IL-17D increase the proliferation of breast and ovarian cancer cells. OAW42 (ovarian, A), MCF7 (breast, B) and T47D (breast, C) cells were cultured in adequate complete medium supplemented with increasing doses of recombinant human IL-17C as indicated. Cell proliferation was assessed at 72 h using tritiated thymidine ([3H]-TdR) incorporation protocol. OAW42 (D), MCF7 (E) and T47D (F) cells were cultured in adequate complete medium supplemented with increasing doses of recombinant human IL-17D as indicated. Cell proliferation was assessed at 72 h using tritiated thymidine ([3H]-TdR) incorporation protocol.
as §2, §3

The next series relates to T47D breast cancer cells. Briefly: Cell proliferation assay ([3H]-TdR). The series is classed as cell-based, human. The conditions noted are these: [3H]-TdR incorporation at 72 h, increasing doses of recombinant cytokine (0 to 100 ng/ml). The method, then:
as §4, §5, §2, §3

Series [3] concerns OAW42 ovarian cancer cells. The experiment in a line: Matrigel invasion assay. The class given is cell-based, human. The following applies: cultured 14 days with 100 ng/ml, Matrigel Invasion Chambers, 22 hours. The method, then:
(§6) FIGS. 8A-8C: IL-17B increases migration and invasion of breast and ovarian cancer cells. OAW42 (ovarian, A) and MCF7 (breast, B) cells were cultured in complete adequate complete medium alone (Ctl) or supplemented with 100 ng/ml of recombinant human IL-17B (IL-17B) as indicated. Cell migration was evaluated in transwell migration assay. (C) OAW42 cells were cultured for 14 days in adequate complete medium alone (Ctl) or supplemented with 100 ng/ml of recombinant human IL-17B (IL-17B) as indicated. Cell invasiveness was then evaluated in Matrigel Invasion Chambers.
as §1, with “Transwell filters are then fixed and stained in Giemsa solution following which non-invading cells are removed from the upper surface of the transwell membrane using a cotton swab.” left out

Series [4] deals with OAW42 ovarian cancer cells. Briefly: Transwell migration assay. The conditions noted are these: 100 ng/ml, 22 hours. The series is classed as cell-based, human. The method, then: as §6
(§7) Migration Assay 20,000 cells were seeded on the upper chamber of trans well chambers in 1% FCS adequate medium alone (medium) or supplemented with recombinant human IL-17B (100 ng/ml) for 22 hours at 37° C. as indicated. The cells on the transwell were stained with 0.5% crystal violet prior imaging and enumeration. The number of cells migrated onto the transwell were counted (magnification ×4). The graph presents data after quantification in % of cell migration compared to non-treated cells. Results are the mean+/−SEM of two independent experiments, each performed in triplicate.

The subject of series [5] is MCF7 breast cancer cells. The experiment in a line: Transwell migration assay. The class given is cell-based, human. The conditions noted are these: 100 ng/ml, 22 hours. The method, then:
as §6, §7

The subject of series [6] is normal human dermal fibroblasts (NHDF). Briefly: IL-6 ELISA. The class given is cell-based. The conditions noted are these: 30 ng/ml recombinant cytokine, 24 h culture, ELISA of supernatant. As to the method:
FIG. 12: IL-17B, IL-17C, IL-17D, IL-17E and IL-17F increase the production of pro-inflammatory IL-6 by normal human dermal fibroblasts (NHDF). NHDF were cultured for 24 h in complete adequate complete medium alone (medium) or in the presence of 30 ng/ml of recombinant human IL-17B, IL-17C, IL-17D, IL-17E or IL-17F as indicated. All isoforms increased the production of pro-inflammatory IL-6 by NHDF.
Normal human dermal fibroblasts (NHDF) were cultures in complete medium alone or supplemented with 30 ng/ml L of recombinant IL-17B, IL17C or IL17D as indicated. After […] of culture, supernatant are collected. IL-6 ELISA is performed with human IL-6 development kit (Peprotech) following manufacturer's instructions.

Series [7] relates to MCF7 breast cancer cells. The experiment in a line: Cytotoxicity assay, doxorubicin-induced cell death. The conditions noted are these: cytokine 1 or 10 ng/ml, doxorubicin 20 or 30 μM for 7 h. The series is classed as cell-based. As to the method:
(§8) FIGS. 9A-9F: IL-17B inhibits docetaxel and doxorubicin-induced cell death. MCF7 (A), T47D (B), MDA-MB436 (C), BT20 (D) and MDA-MB468 (E) breast cells were cultured for 48 h in adequate complete medium alone (medium) or treated with recombinant human IL-17B at 1 or 10 ng/ml as indicated. Cells were then culture in Fetal Calf Serum (FCS) free medium supplemented with corresponding concentration of cytokine for 24 h and then further supplemented with docetaxel at 5, 10, 20 or 40 μg/ml as indicated for 7 h. The percentage of cell death (=cytotoxicity) was determined using the Cytotoxicity Detection Kit (Roche). (F) MCF7 cells were cultured for 48 h in adequate complete medium alone (medium) or treated with recombinant human IL-17B at 1 or 10 ng/ml as indicated. […] The percentage of cell death (=cytotoxicity) was determined using the Cytotoxicity Detection Kit (Roche). […]
(§9) The percentage of cell death (=cytotoxicity) was determined after 7 h of culture in the presence of docetaxel or doxorubicin using the Cytotoxicity Detection Kit (Roche) according to the manufacturer's instructions. […] Optical density was then read at 490 nm. The percentage of cytotoxicity is calculated as followed: %=100×(exp value−control medium value)/(Triton X100 treated cells value−control medium value)

Series [8] deals with MDA-MB436 breast cancer cells. Briefly: Cell proliferation assay ([3H]-TdR). The series is classed as cell-based, human. The conditions noted are these: [3H]-TdR incorporation at 72 h, increasing doses of recombinant cytokine (0 to 100 ng/ml). The method, then: as §4, §2
(§10) 400 cells are seeded per well in 96 well plate (Corning) and kept overnight in adequate complete medium. […] [3H]-TdR uptake was measured using PerkinElmer microβ2 2450 microplate counter.

Series [9] deals with MDA-MB468 breast cancer cells. Briefly: Cell proliferation assay ([3H]-TdR). The series is classed as cell-based, human. The following applies: [3H]-TdR incorporation at 72 h, increasing doses of recombinant cytokine (0 to 100 ng/ml). The method, then:
as §4, §2, §10

For series [10], the system named is breast cancer cell lines that express IL-17RB. The experiment in a line: Cytotoxicity assay, docetaxel-induced cell death. The class given is cell-based. The following applies: MCF7, T47D, MDA-MB436, BT20, MDA-MB468; cytokine 1 or 10 ng/ml; docetaxel 5, 10, 20 or 40 μg/ml for 7 h. As to the method:
as §8, §9

Series [11] relates to OAW42 ovarian cancer cells. The experiment in a line: Cell proliferation assay ([3H]-TdR). The series is classed as cell-based, human. The following applies: [3H]-TdR incorporation at 72 h, increasing doses of recombinant cytokine (0 to 100 ng/ml). As to the method:
as §5
HCT116, HT29, and SKOV3 cell lines were cultured in McCoy5a medium (Life technologies) supplemented with 10% FCS, 2% glutamine and 1% antibiotics (Life technologies). MCF7, T47D, MDA-MB231 and BT20 cell lines were cultured in RPMI 1640 medium supplemented as described above. SKMEL5, LOVO, OAW42, MDA-MB435S, MDA-MB436, MDA-MB468 cell lines and normal human dermal fibroblasts (NHDF) were grown in DMEM/F12 medium (Life Technologies) supplemented as described above. […]
as §10

B1: IL-17B: recombinant human IL-17B, interleukin 17 isoform that binds IL-17RB (protein)
chain: QPRSPKSKRKGQGRPGPLAPGPHQVPLDLVSRMKPYARMEEYERNIEEMVAQLRNSSELAQRKCEVNLQLWMSNKRSLSPWGYSINHDPSRIPVDLPEARCLCLGCVNPFTMQEDRSMVSVPVFSQVPVRRRLCPPPPRTGPCRQRAVMETIAVGCTCIF
For B1, the cell invasiveness entry in series [1] is on record as “did not increase”; in [3] it was “increased”. The cell proliferation entry in the series with MDA-MB231 cells is recorded as “did not stimulate”; in the series with MCF7 breast cancer cells [2], “increased”; in the series with T47D breast cancer cells, “increased”; in [8] it was “increased”; in series [9], “increased”. For the same molecule, the cell migration entry (in series [4]; in the series on MCF7 breast cancer cells [5]) was “increased” each time. In addition, the “production of pro-inflammatory IL-6” value in series [6] is recorded as “increase”. For the same molecule, the “doxorubicin-induced cell death (cytotoxicity)” value in the series on MCF7 breast cancer cells [7] is listed as “protected”. Also, in series [10], the “docetaxel-induced cell death (cytotoxicity)” value was “decreased”.

B2: IL-17C: recombinant human IL-17C, interleukin 17 isoform that binds IL-17RE (protein)
chain: HHDPSLRGHPHSHGTPHCYSAEELPLGQAPPHLLARGAKWGQALPVALVSSLEAASHRGRHERPSATTQCPVLRPEEVLEADTHQRSISPWRYRVDTDEDRYPQKLAFAECLCRGCIDARTGRETAALNSVRLLQSLLVLRRRPCSRDGSGLPTPGAFAFHTEFIHVPVGCTCVLPRSV
On to B2, for which the cell invasiveness entry in series [1] is “increased”. In addition, the cell proliferation entry (in [11]; in the series with MCF7 breast cancer cells [2]; with T47D breast cancer cells) was “increased” throughout. Moreover, the “production of pro-inflammatory IL-6” value in series [6] is on record as “increase”.

B3: IL-17F: recombinant human IL-17F, interleukin 17 isoform (protein, UniProt Q96PD4 31-163, looked up)
Interleukin-17F: RKIPKVGHTFFQKPESCPPVPGGSMKLDIGIINENQRVSMSRNIESRSTSPWNYTVTWDPNRYPSEVVQAQCRNLGCINAQGKEDISMNSVPIQQETLVVRRKHQGCSVSFQLEKVLVTVGCTCVTPVIHHVQ
Consider B3, for which, in [6], the “production of pro-inflammatory IL-6” value is on record as “increase”.

B4: IL-17D: recombinant human IL-17D, interleukin 17 isoform, receptor unknown (protein, UniProt Q8TAD2 16-202, looked up)
Interleukin-17D: AGAPRAGRRPARPRGCADRPEELLEQLYGRLAAGVLSAFHHTLQLGPREQARNASCPAGGRPADRRFRPPTNLRSVSPWAYRISYDPARYPRYLPEAYCLCRGCLTGLFGEEDVRFRSAPVYMPTVVLRRTPACAGGRSVYTEAYVTIPVGCTCVPEPEKDADSINSSIDKQGAKLLLGPNDAPAGP
As to B4, the cell invasiveness entry in series [1] is reported as “increased”. The cell proliferation entry (in series [11]; in the series with MCF7 breast cancer cells [2]) was “increased” each time. Moreover, in [6], the “production of pro-inflammatory IL-6” value was “increase”.

B5: IL-17E: recombinant human IL-17E (=IL-25), interleukin 17 isoform (protein, UniProt Q9H293 33-177, looked up)
Interleukin-25: YSHWPSCCPSKGQDTSEELLRWSTVPVPPLEPARPNRHPESCRASEDGPLNSRAISPWRYELDRDLNRLPQDLYHARCLCPHCVSLQTGSHMDPRGNSELLYHNQTVFYRRPCHGEKGTHKGYCLERRLYRVSLACVCVRPRVMG
Take B5: in [6], the “production of pro-inflammatory IL-6” value is “increase”.
